The series deals with the molecule itself. Put plainly: SEC. For orientation: Size exclusion chromatography separates by hydrodynamic size, large species first.

B1: 2-helix protein (native single chain NHR + CHR of syncytin, amino acids 349-445) (domain or fragment)
chain: not shown
One may read the stoichiometry N as a count of units in the complex or per binding partner. As to B1, the “stoichiometry N” value amounted to 3.

For the origin of these results see publication PMC7092852 (Biochemical and Biophysical Research Communications, 2005).
